The data set concerns the molecule itself. Nature of the data set: negative-stain transmission elect.

B1: LS-SpyTag (Aquifex aeolicus lumazine synthase multimeric protein scaffold particle with SpyTag) (other)
chain: MQIYEGKLTAEGLRFGIVASRFNHALVDRLVEGAIDAIVRHGGREEDITLVRVPGSWEIPVAAGELARKEDIDAVIAIGVLIRGATPHFDYIASEVSKGLANLSLELRKPITFGVITADTLEQAIERAGTKHGNKGWEAALSAIEMANLFKSLRGGGGSGGGGSGGGGSAHIVMVDAYKPTK
notes: also called LS-ST; LS-MPSPs; copies: 60
Regarding B1, the binding result was “binds”.

(Values after paper PMC8005036 (Vaccines, 2021).)
